Data taken from patent US20020037999.

System: p54 SAPKβ (JNK3) fused to the WIN-ZIP B1 leucine zipper and Myc tag

Row | Substance | tyrosine phosphorylation of p54 (anti-Myc immunoprecipitates probed with anti-PTyr)
1 | v-Src fused at the N-terminus with HA tag alone | p54 is phosphorylated on tyrosine only when the WIN-ZIP A1-Src fusion is present (so not with v-Src carrying the HA tag alone)
2 | v-Src fused at the N-terminus with HA tag plus WIN-ZIP A1 leucine zipper | p54 is phosphorylated on tyrosine only when the WIN-ZIP A1-Src fusion is present
